Values belong to the molecule of their own block, whether it stands above or below them.
Columns and labels:
[1] = target: T1, SYP41 (Arabidopsis thaliana) (UniProt O65359)
T1 sequence: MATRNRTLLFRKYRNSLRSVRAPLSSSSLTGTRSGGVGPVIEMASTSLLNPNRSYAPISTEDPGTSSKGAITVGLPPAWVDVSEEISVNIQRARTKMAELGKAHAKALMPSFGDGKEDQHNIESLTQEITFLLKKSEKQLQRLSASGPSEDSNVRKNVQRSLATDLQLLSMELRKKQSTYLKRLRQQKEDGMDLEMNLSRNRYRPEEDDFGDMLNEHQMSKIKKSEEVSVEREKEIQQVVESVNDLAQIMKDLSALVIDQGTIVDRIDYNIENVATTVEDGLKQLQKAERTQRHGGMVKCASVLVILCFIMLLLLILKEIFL

[2] = target: T2, SYP42 (Arabidopsis thaliana) (UniProt Q9SWH4)
T2 sequence: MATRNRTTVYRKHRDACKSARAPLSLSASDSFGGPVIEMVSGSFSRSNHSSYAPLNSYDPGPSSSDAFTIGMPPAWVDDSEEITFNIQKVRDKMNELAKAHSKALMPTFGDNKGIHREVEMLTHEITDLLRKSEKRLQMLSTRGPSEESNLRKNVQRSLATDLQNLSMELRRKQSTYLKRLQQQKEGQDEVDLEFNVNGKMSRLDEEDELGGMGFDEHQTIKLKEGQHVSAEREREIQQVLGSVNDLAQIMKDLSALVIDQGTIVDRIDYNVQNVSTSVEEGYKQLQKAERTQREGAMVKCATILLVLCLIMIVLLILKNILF

[3] = target: T3, SYP43 (Arabidopsis thaliana) (UniProt Q9SUJ1)
T3 sequence: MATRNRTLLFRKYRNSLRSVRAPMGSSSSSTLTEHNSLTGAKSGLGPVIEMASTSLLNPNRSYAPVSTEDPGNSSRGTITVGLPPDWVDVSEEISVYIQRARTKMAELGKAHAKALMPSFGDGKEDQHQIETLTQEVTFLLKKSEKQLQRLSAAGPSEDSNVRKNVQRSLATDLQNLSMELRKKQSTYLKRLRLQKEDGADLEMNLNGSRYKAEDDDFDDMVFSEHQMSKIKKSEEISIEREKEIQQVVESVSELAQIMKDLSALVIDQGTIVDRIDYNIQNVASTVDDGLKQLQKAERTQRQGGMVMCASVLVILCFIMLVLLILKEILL

NBD fluorescence increase (lipid mixing) of SYP41 acceptor vesicles with R-VTI11 donor vesicles after 30 min preincubation with YKT62 and VTI12s; pair blocked: m1 + m4 [1]: < 4% | NBD fluorescence increase (lipid mixing) of SYP41 acceptor vesicles with R-VTI12 donor vesicles after 30 min preincubation with YKT62 and VTI12s; pair blocked: m1 + m5 [1]: < 4% | NBD fluorescence increase (lipid mixing) of SYP42 acceptor vesicles with R-VTI11 donor vesicles after 30 min preincubation with YKT62 and VTI12s; pair blocked: m2 + m4 [2]: < 4% | NBD fluorescence increase (lipid mixing) of SYP42 acceptor vesicles with R-VTI12 donor vesicles after 30 min preincubation with YKT62 and VTI12s; pair blocked: m2 + m5 [2]: < 4% | NBD fluorescence increase (lipid mixing) of SYP43 acceptor vesicles with R-VTI11 donor vesicles after 30 min preincubation with YKT62 and VTI12s; pair blocked: m3 + m4 [3]: < 4% | NBD fluorescence increase (lipid mixing) of SYP43 acceptor vesicles with R-VTI12 donor vesicles after 30 min preincubation with YKT62 and VTI12s; pair blocked: m3 + m5 [3]: < 4%
Molecule: soluble fragment of VTI12 (domain or fragment)

NBD fluorescence increase (lipid mixing) of SYP41 acceptor vesicles with R-VTI11 donor vesicles after 30 min preincubation with YKT62 and VTI11s; pair blocked: m1 + m4 [1]: < 4% | NBD fluorescence increase (lipid mixing) of SYP41 acceptor vesicles with R-VTI12 donor vesicles after 30 min preincubation with YKT62 and VTI11s; pair blocked: m1 + m5 [1]: < 4% | NBD fluorescence increase (lipid mixing) of SYP42 acceptor vesicles with R-VTI11 donor vesicles after 30 min preincubation with YKT62 and VTI11s; pair blocked: m2 + m4 [2]: < 4% | NBD fluorescence increase (lipid mixing) of SYP42 acceptor vesicles with R-VTI12 donor vesicles after 30 min preincubation with YKT62 and VTI11s; pair blocked: m2 + m5 [2]: < 4% | NBD fluorescence increase (lipid mixing) of SYP43 acceptor vesicles with R-VTI11 donor vesicles after 30 min preincubation with YKT62 and VTI11s; pair blocked: m3 + m4 [3]: < 4% | NBD fluorescence increase (lipid mixing) of SYP43 acceptor vesicles with R-VTI12 donor vesicles after 30 min preincubation with YKT62 and VTI11s; pair blocked: m3 + m5 [3]: < 4%
B1: soluble fragment of VTI11 (domain or fragment)
chain: MSDVFDGYERQYCELSASLSKKCSSAISLDGEQKKQKLSEIKSGLENAEVLIRKMDLEARTLPPNLKSSLLVKLREFKSDLNNFKTEVKRITSGQLNAAARDELLEAGMADTKTASADQRARLMMSTERLGRTTDRVKDSRRTMMETEEIGVSILQDLHGQRQSLLRAHETLHGVDDNIGKSKKILTDMTRRMNKNKWTI

Reference: PMC3848460
